Measurements from patent US7354735B2, “Nucleic acid encoding fluorescent protein constructs and methods for detecting apoptosis” (Hong Kong University of Science and Technology, priority 2001, dated 2008).

Legend:
caspase-3 [1] = molecular target: T1, caspase-3 (Homo sapiens, UniProt P42574); assay: Western blot analysis of caspase-3 cleavage of purified FRET probes; format: biochemical; conditions: for cleavage by caspase-3 (Western blot): purified protein incubated with caspase-3, 37 degree C, 1-2 hrs, anti-GFP antibody
T1 sequence (P42574 29-175 limits assumed): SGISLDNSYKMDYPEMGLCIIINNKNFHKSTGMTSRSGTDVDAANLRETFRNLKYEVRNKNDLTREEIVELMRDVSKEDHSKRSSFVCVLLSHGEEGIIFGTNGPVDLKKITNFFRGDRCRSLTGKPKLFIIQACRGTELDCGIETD
T1 sequence (P42574 176-277 limits assumed): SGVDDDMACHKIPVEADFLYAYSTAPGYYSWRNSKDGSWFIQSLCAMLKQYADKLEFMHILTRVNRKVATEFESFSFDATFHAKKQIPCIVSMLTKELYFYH
Method: Purified FRET probes were incubated with caspase-3 in the reaction buffer at 37. degree. C. for 1-2 hrs. The reaction mixtures were separated on a SDS-PAGE and transferred onto a nitrocellulose membrane. The Protein blot was then probed with anti-GFP antibody (CLONTECH™). Acetyl-Asp-Glu-Val-Asp-aldehyde called CHO (AC-DEVD-CHO) is a chemical derivative of SEQ ID NO: 11 and a caspase-3 specific inhibitor.
To determine whether these FRET probes are sensitive to caspase-3 cleavage; the purified proteins were incubated with caspase-3 and then subjected to Western blot analysis. Antibodies were purchased from CLONTECH™.

HeLa cells = assay: Imaging of FRET probe in living HeLa cells during UV-induced apoptosis; format: cell-based
Method: HeLa cells expressing either sensor A or CFP-YFP fusion protein were induced to apoptosis by UV irradiation for 5 min. When the probe was excited at 440 nm, the fluorescent intensity of CFP (at 480±15 nm) and that of YFP (at 535±12.5 nm) from same cell before (A, C) and after (B, D) UV treatment was recorded using a cooled CCD imaging system. The representative ratio images of YFP/CFP are shown here. A significant FRET reduction is seen only in panel B from both cells expressing sensor A, but not in panel D with cells expressing the control fusion protein.
FIG. 7 is a statistic analysis of FRET changes during apoptosis. Images were recorded as described in FIG. 6. The fluorescent intensities of YFP and CFP were then determined from each image. The average values of YFP/CFP from 13 cells expressing sensor A and 9 cells expressing CFP-YFP fusion protein before and after UV-irradiation are plotted here. Nearly 4-fold reduction in the apoptotic cells expressing was found using the FRET probe but not in the control cells expressing the CFP-YFP fusion gene.
To test whether this FRET probe can be used to detect caspase activity in living cells, sensor A was expressed in HeLa cells and measured the FRET effect of the probe in single cells using a cooled CCD imaging system. The fluorescent images of the cell obtained from the emission wavelengths of CFP and YFP were recorded before and after UV treatment. A computer software (Metamorph, Universal Imaging) was used to generate a ratio image of YFP/CFP for each cell under different treatments. […] At 3 hours after the UV treatment, these cells had entered apoptosis. […] The average YFP/CFP emission ratio changes was calculated for 13 apoptotic cells expressing sensor A, and found a nearly 4-fold reduction after UV treatment (FIG. 7).
Recently, sensor A was used to study the dynamics of caspase-3 activation during UV-induced apoptosis in living HeLa cells.

caspase-3 [2] = molecular target: T1, caspase-3; assay: Dosage-dependent caspase-3 cleavage assay; format: biochemical; conditions: 1.28 μg sensor protein, caspase-3 0.3125 ng to 1.28 μg, 1 hour; for sensitivity to caspase-3: normalized YFP/CFP ratio
Method: Same amount of purified sensor A and sensor B protein was incubated with different amount of caspase-3 ranging from 0.3125 ng to 1.28 μg for 1 hr. The emission spectra of both YFP and CFP were measured for each sample at the end of reaction using a spectrofluorometer. The emission ratio (YFP/CFP) of each sample was normalized to the value of the ratio from a mock control with no caspase-3.
To compare the sensitivity of sensor A and sensor B on caspase-3 activity, a dosage-dependent caspase-3 cleavage assay was performed. In this experiment, 1.28 μg amount of the purified sensor A or sensor B protein was incubated with different amount of caspase-3 ranging from 0.3125 ng to 1.28 μg for 1 hour. The emission spectra of both YFP and CFP were measured for each sample at the end of the reaction using a spectrofluorometer. The emission ratio (YFP/CFP) of each caspase reaction was normalized with that of the mock control having no caspase-3 in the reaction.

caspase-3 [3] = molecular target: T1, caspase-3; assay: Spectrofluorometer measurement of FRET emission spectra before and after caspase-3 treatment; format: biochemical; conditions: excitation 433 nm; for YFP (526 nm)/CFP (480 nm) emission ratio after caspase treatment: after incubating with caspase-3; for YFP (526 nm)/CFP (480 nm) emission ratio before caspase treatment: before caspase-3
Method: The excitation wavelength used to excite CFP in the probe was 433 nm. −cpp32: no caspase-3 in the reaction. +cpp32: caspase-3 was added into the reaction.
The fluorescent energy transfer from CYP to YFP in the FRET probes was measured using a spectrofluorometer. When CFP was excited in each probe at the excitation wavelength of 433 nm, very little emission light was detected from the FRET probes at the known emission wavelength for CFP (480 nm). Instead, a significant amount of emitted fluorescent light was detected at the emission wavelength of YFP which peaks at 526 nm (FIG. 4). […] It was then determined whether the FRET effect was sensitive to the caspase cleavage. The FRET probes were treated with caspase-3 and analyzed using a spectrofluorometer. […] As a control, no change for the emission spectrum was observed from the CFP-YFP fusion protein which lacks the substrate sequence (FIG. 4A). Based on spectra similar to FIG. 4, it was determined the YFP (526 nm)/CFP (480 nm) emission ratio for all three FRET probes before and after caspase treatment. This YFP/CFP ratio was used to quantify the FRET effect.

Substance | cleavage of FRET probe (sensor A) by caspase-3 in the presence of inhibitor (caspase-3 [1]; caspase-3 plus inhibitor, Western blot) | reduction of average YFP/CFP emission ratio after UV treatment (HeLa cells; HeLa cells expressing the probe, before and after UV irradiation, 13 cells sensor A, 9 control cells) | intensity of YFP/CFP ratio image after UV treatment (HeLa cells; HeLa cells, 3 hours after UV treatment) | detection of caspase-3 activation during UV-induced apoptosis (HeLa cells; living HeLa cells) | cleavage by caspase-3 (Western blot) (caspase-3 [1]) | relative sensitivity to caspase-3 (sensor A versus sensor B) (caspase-3 [2]) | sensitivity to caspase-3 (caspase-3 [2]) | change of emission spectrum on caspase-3 treatment (caspase-3 [3]) | YFP (526 nm)/CFP (480 nm) emission ratio after caspase treatment (caspase-3 [3]) | YFP (526 nm)/CFP (480 nm) emission ratio before caspase treatment (caspase-3 [3])
acetyl-Asp-Glu-Val-Asp-aldehyde [AC-DEVD-CHO, reference compound] | no FRET probe (sensor A) was cleaved |  |  |  |  |  |  |  |  | 
sensor A: CFP-YFP FRET fusion protein with 16 amino acid linker SGLRSGGDEVDGGSNS (SEQ ID NO: 7) containing the caspase-3 recognition motif (left off: small tags and cut ends; large carriers) |  | ~4 fold | decease dramatically | clearly detected prior to any visible cell morphological changes | caspase-3 can cleave almost all | slightly more sensitive than sensor B | highly sensitive | completely changed | 0.59 | 3.02
sensor B: CFP-YFP FRET fusion protein with 22 amino acid linker SGLRSGGSGGDEVDGGSGGSNS (SEQ ID NO: 10) containing DEVD (left off: small tags and cut ends; large carriers) |  |  |  |  | caspase-3 can cleave almost all |  | highly sensitive | completely changed | 0.59 | 2.76
